± gives the uncertainty stated by the source.
B1: Protein maelstrom homolog, residues 3 to 71; numbered along this chain, Q96JY0 (parent)
chain: NRKASRNAYYFFVQEKIPELRRRGLPVARVADAIPYCSSDWALLREEEKEKYAEMAREWRAAQGKDPGP

Variants of: B1
Assay: abundance fitness (aPCA) (normalised: wild type 0, dead -1); higher = more abundant; growth selection in yeast, the domain comes from the species named
Details: Homo sapiens
V13F showed an abundance fitness of -0.532 ± 0.26. V13L gave an abundance fitness of -0.32 ± 0.25. V13I showed an abundance fitness of -0.375 ± 0.36. V13G showed an abundance fitness of -0.797 ± 0.45. Variant Y9S has an abundance fitness of -0.513 ± 0.1. In the case of Y9V, the abundance fitness is reported as -0.222 ± 0.074. Work on Y9N yielded an abundance fitness of -0.168 ± 0.17. Work on Y9T yielded an abundance fitness of -0.615 ± 0.12. In the case of Y9D, the abundance fitness is reported as -0.185 ± 0.22. Y9W gave an abundance fitness of -0.242 ± 0.1. Y9F gave an abundance fitness of 0.18 ± 0.18. For Y9I, the abundance fitness was -0.09 ± 0.13. With Y9A the abundance fitness was -0.53 ± 0.14. For Y9K, the abundance fitness was -0.037 ± 0.11. With Y9R the abundance fitness was -0.239 ± 0.06. For Y9E, the abundance fitness was 0.001 ± 0.11. Work on Y9C yielded an abundance fitness of -0.289 ± 0.16. Y9L gave an abundance fitness of -0.007 ± 0.035. Variant Y9H has an abundance fitness of -0.137 ± 0.11. For Y9P, the abundance fitness was -0.338 ± 0.08. Y9M gave an abundance fitness of 0.026 ± 0.08. Y9G gave an abundance fitness of -0.61 ± 0.074. Y9Q gave an abundance fitness of -0.033 ± 0.11. In the case of F12H, the abundance fitness is reported as -0.847 ± 0.26. In the case of F12Y, the abundance fitness is reported as 0.013 ± 0.1. In the case of F12L, the abundance fitness is reported as -0.713 ± 0.072. F12W showed an abundance fitness of -0.404 ± 0.068. Variant F12D has an abundance fitness of -0.403 ± 0.13. Work on F12N yielded an abundance fitness of -0.624 ± 0.18. Variant F12I has an abundance fitness of -0.97 ± 0.23. F12S showed an abundance fitness of -0.7 ± 0.12. Variant F12P has an abundance fitness of -0.869 ± 0.099. Work on F12R yielded an abundance fitness of -0.797 ± 0.061. F12G showed an abundance fitness of -0.531 ± 0.064. With F12M the abundance fitness was -0.53 ± 0.047. In the case of F12C, the abundance fitness is reported as -0.621 ± 0.12. With F12E the abundance fitness was -0.778 ± 0.11. In the case of F12V, the abundance fitness is reported as -0.757 ± 0.077. In the case of F12K, the abundance fitness is reported as -0.851 ± 0.11. For A8D, the abundance fitness was -0.046 ± 0.1. A8Q showed an abundance fitness of -0.304 ± 0.082. For A8L, the abundance fitness was -0.783 ± 0.11. With A8V the abundance fitness was -0.796 ± 0.12. A8S gave an abundance fitness of -0.177 ± 0.088. For A8M, the abundance fitness was -0.357 ± 0.061. For A8C, the abundance fitness was -0.269 ± 0.24. A8K showed an abundance fitness of -0.483 ± 0.096. With A8H the abundance fitness was -0.498 ± 0.21. With A8F the abundance fitness was -0.936 ± 0.46. With A8Y the abundance fitness was -0.696 ± 0.17. With A8N the abundance fitness was -0.429 ± 0.29. Variant A8G has an abundance fitness of -0.057 ± 0.074. A8R gave an abundance fitness of -0.385 ± 0.072. A8E gave an abundance fitness of -0.294 ± 0.14. With A8P the abundance fitness was -0.221 ± 0.083. Work on A8T yielded an abundance fitness of -0.325 ± 0.11. A8I showed an abundance fitness of -0.27 ± 0.21. Variant I17A has an abundance fitness of -0.467 ± 0.084. Work on K16S yielded an abundance fitness of -0.141 ± 0.088. Variant K16C has an abundance fitness of -0.428 ± 0.25. In the case of K16A, the abundance fitness is reported as -0.096 ± 0.12. K16Q gave an abundance fitness of -0.028 ± 0.13. For K16R, the abundance fitness was 0.031 ± 0.082. K16W showed an abundance fitness of -0.819 ± 0.18. For K16T, the abundance fitness was -0.375 ± 0.13. For K16F, the abundance fitness was -0.555 ± 0.26. K16Y gave an abundance fitness of -0.697 ± 0.46. Work on K16M yielded an abundance fitness of -0.041 ± 0.11. Work on K16G yielded an abundance fitness of -0.673 ± 0.1. With K16V the abundance fitness was -0.41 ± 0.086. For K16N, the abundance fitness was 0.082 ± 0.22. In the case of Y10K, the abundance fitness is reported as -0.454 ± 0.08. For Y10R, the abundance fitness was -0.358 ± 0.066. With Y10C the abundance fitness was -0.643 ± 0.11. Variant Y10P has an abundance fitness of -1.07 ± 0.18. Work on Y10Q yielded an abundance fitness of -0.254 ± 0.079. Y10L showed an abundance fitness of -0.332 ± 0.072. Y10T showed an abundance fitness of -0.427 ± 0.096. Y10G gave an abundance fitness of -0.5 ± 0.07. For Y10E, the abundance fitness was -0.065 ± 0.08. For Y10F, the abundance fitness was 0.085 ± 0.14. Y10W gave an abundance fitness of -0.175 ± 0.1. Work on Y10N yielded an abundance fitness of 0.15 ± 0.29. With Y10A the abundance fitness was -0.403 ± 0.075. Work on Y10S yielded an abundance fitness of -0.552 ± 0.1. For Y10V, the abundance fitness was -0.498 ± 0.092. In the case of Y10M, the abundance fitness is reported as -0.361 ± 0.09. Y10I showed an abundance fitness of -0.657 ± 0.2. For Y10D, the abundance fitness was 0.185 ± 0.18. Q14F showed an abundance fitness of -0.299 ± 0.12. For Q14M, the abundance fitness was -0.023 ± 0.074. Q14G showed an abundance fitness of -0.303 ± 0.068. Work on Q14T yielded an abundance fitness of -0.186 ± 0.063. Q14C showed an abundance fitness of -0.148 ± 0.081. With Q14R the abundance fitness was -0.074 ± 0.056. Q14P showed an abundance fitness of -0.724 ± 0.1. Variant Q14A has an abundance fitness of -0.171 ± 0.067. Q14I showed an abundance fitness of -0.228 ± 0.077. Q14W gave an abundance fitness of -0.014 ± 0.072. With Q14L the abundance fitness was -0.079 ± 0.056. In the case of Q14D, the abundance fitness is reported as 0.054 ± 0.098. Variant Q14V has an abundance fitness of -0.265 ± 0.057. With Q14Y the abundance fitness was -0.145 ± 0.13. Q14E showed an abundance fitness of 0.135 ± 0.08. Work on Q14S yielded an abundance fitness of -0.196 ± 0.058. Q14H showed an abundance fitness of -0.618 ± 0.19. E15D gave an abundance fitness of -0.241 ± 0.23. Variant E15H has an abundance fitness of 0.023 ± 0.28. With F11C the abundance fitness was -0.313 ± 0.22. Variant F11V has an abundance fitness of -0.502 ± 0.088. Variant F11T has an abundance fitness of -0.38 ± 0.18. With F11M the abundance fitness was -0.072 ± 0.1. Variant F11H has an abundance fitness of -0.107 ± 0.18. Work on F11Y yielded an abundance fitness of -0.036 ± 0.13. Work on F11N yielded an abundance fitness of -0.512 ± 0.28. Work on F11P yielded an abundance fitness of -0.776 ± 0.16. Variant F11D has an abundance fitness of -0.705 ± 0.18. F11Q gave an abundance fitness of -0.328 ± 0.1. Variant F11W has an abundance fitness of -0.371 ± 0.15. In the case of F11L, the abundance fitness is reported as -0.322 ± 0.07. In the case of F11S, the abundance fitness is reported as -0.526 ± 0.077. With F11R the abundance fitness was -0.674 ± 0.091. In the case of F11I, the abundance fitness is reported as -0.398 ± 0.17. Work on F11K yielded an abundance fitness of -0.94 ± 0.2. In the case of F11G, the abundance fitness is reported as -0.694 ± 0.18. With F11A the abundance fitness was -0.265 ± 0.075. Variant S5G has an abundance fitness of -0.03 ± 0.084. Variant S5L has an abundance fitness of -0.593 ± 0.3. S5M gave an abundance fitness of -0.118 ± 0.18. S5I gave an abundance fitness of 0.278 ± 0.32. In the case of S5T, the abundance fitness is reported as -0.202 ± 0.13. Variant S5R has an abundance fitness of -0.228 ± 0.11. Work on S5P yielded an abundance fitness of -0.24 ± 0.16. For S5V, the abundance fitness was -0.087 ± 0.1. In the case of S5Y, the abundance fitness is reported as -0.36 ± 0.28. S5E showed an abundance fitness of 0.137 ± 0.34. With S5Q the abundance fitness was -0.088 ± 0.15. Variant S5K has an abundance fitness of -0.206 ± 0.28. N7H showed an abundance fitness of -0.267 ± 0.13. With N7S the abundance fitness was 0.045 ± 0.071. N7Y gave an abundance fitness of -0.44 ± 0.18. N7K showed an abundance fitness of -0.05 ± 0.092. With N7V the abundance fitness was -0.535 ± 0.068. With N7C the abundance fitness was -0.497 ± 0.17. Work on N7Q yielded an abundance fitness of -0.147 ± 0.081. N7I showed an abundance fitness of -0.355 ± 0.22. N7D showed an abundance fitness of 0.212 ± 0.17. Variant N7M has an abundance fitness of 0.015 ± 0.071. For N7F, the abundance fitness was -0.233 ± 0.26. For N7W, the abundance fitness was -0.257 ± 0.068. N7T showed an abundance fitness of 0 ± 0.12. With N7G the abundance fitness was 0.01 ± 0.063. In the case of N7A, the abundance fitness is reported as -0.993 ± 0.28. Work on N7L yielded an abundance fitness of -0.168 ± 0.061. Work on N7P yielded an abundance fitness of -0.285 ± 0.13. With R6A the abundance fitness was -0.097 ± 0.15. For R6Y, the abundance fitness was -0.175 ± 0.34. Work on R6Q yielded an abundance fitness of -0.447 ± 0.24. With R6P the abundance fitness was -0.179 ± 0.14. R6M gave an abundance fitness of -0.064 ± 0.17. With R6S the abundance fitness was -0.228 ± 0.15. Work on R6K yielded an abundance fitness of -0.419 ± 0.26. With R6T the abundance fitness was 0.109 ± 0.19. Work on R6V yielded an abundance fitness of -0.467 ± 0.24. For R6C, the abundance fitness was -0.123 ± 0.18. Work on R6E yielded an abundance fitness of 0.061 ± 0.17. In the case of R6L, the abundance fitness is reported as 0.046 ± 0.045.

— the Human Domainome abundance scans (Beltran et al. 2025)
